According to the supplement of paper PMC9112550, “Optimization of the antimicrobial peptide Bac7 by deep mutational scanning” (BMC Biology, 2022):

System: Escherichia coli TOP10
Experiment: shrunken log2 fold change of peptide-encoding DNA abundance (4.5 h post-induction vs induction); higher = less antimicrobial activity (less host growth inhibition)
Settings: time post-induction: 4.5 h; library: site-saturation at positions 5, 18, 19, 20
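Further: peptides expressed intracellularly from a pBAD plasmid library in pooled LB shake-flask culture, induced with 0.3% L-arabinose, DNA abundance read by NGS, three biological replicates, DESeq2 with apeglm shrinkage.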

Q: How did the “shrunken log2 fold change” value turn out when RRIRQRPPRLPRPRPRPSVPPRP was run?
A: Its value is -0.0859.

Q: RRIRIRPPRLPRPRPRPYCWPRP was tested. Which “shrunken log2 fold change” value did it give?
A: The value was -0.185.

Q: How did the “shrunken log2 fold change” value turn out when RRIRKRPPRLPRPRPRPRSNPRP was run?
A: The value was 0.515.

Q: Which “shrunken log2 fold change” value does the source give for RRIRNRPPRLPRPRPRPNVFPRP here?
A: The value was -0.43.

Q: With RRIRKRPPRLPRPRPRPTLVPRP as the sequence, how does the “shrunken log2 fold change” value read?
A: Its value is 0.528.

Q: With RRIRYRPPRLPRPRPRPFGHPRP as the sequence, how does the “shrunken log2 fold change” value read?
A: The value was -0.15.

Q: Which “shrunken log2 fold change” value does the source give for RRIRFRPPRLPRPRPRPYARPRP here?
A: The value was 0.0368.

Q: For RRIRQRPPRLPRPRPRPVMSPRP, which “shrunken log2 fold change” value is on record?
A: The value was -0.215.

Q: How did the “shrunken log2 fold change” value turn out when RRIRARPPRLPRPRPRPHDFPRP was run?
A: The value was 0.0354.

Q: With RRIRNRPPRLPRPRPRPKFAPRP as the sequence, how does the “shrunken log2 fold change” value read?
A: The value was -0.0695.

Q: Which “shrunken log2 fold change” value does the source give for RRIRQRPPRLPRPRPRPKQNPRP here?
A: Its value is -0.0189.

Q: Which “shrunken log2 fold change” value does the source give for RRIRSRPPRLPRPRPRPMAVPRP here?
A: Its value is -0.000652.

Q: RRIRPRPPRLPRPRPRPDTMPRP was tested. Which “shrunken log2 fold change” value did it give?
A: The value was -0.649.

Q: Which “shrunken log2 fold change” value does the source give for RRIRMRPPRLPRPRPRPNCPPRP here?
A: Its value is -0.0204.

Q: With RRIRQRPPRLPRPRPRPTHHPRP as the sequence, how does the “shrunken log2 fold change” value read?
A: The value was 0.0945.

Q: Which “shrunken log2 fold change” value does the source give for RRIRVRPPRLPRPRPRPAMDPRP here?
A: Its value is 0.21.

Q: How did the “shrunken log2 fold change” value turn out when RRIRERPPRLPRPRPRPAHYPRP was run?
A: Its value is -0.148.

Q: How did the “shrunken log2 fold change” value turn out when RRIRSRPPRLPRPRPRPCSEPRP was run?
A: The value was -0.228.

Q: With RRIRQRPPRLPRPRPRPKFCPRP as the sequence, how does the “shrunken log2 fold change” value read?
A: The value was -0.0186.

Q: How did the “shrunken log2 fold change” value turn out when RRIRWRPPRLPRPRPRPHMDPRP was run?
A: The value was -0.18.

Q: With RRIRYRPPRLPRPRPRPLSAPRP as the sequence, how does the “shrunken log2 fold change” value read?
A: Its value is -0.542.

Q: With RRIRCRPPRLPRPRPRPTHEPRP as the sequence, how does the “shrunken log2 fold change” value read?
A: Its value is 0.628.

Q: How did the “shrunken log2 fold change” value turn out when RRIRIRPPRLPRPRPRPWQFPRP was run?
A: Its value is -0.243.

Q: For RRIRRRPPRLPRPRPRPGYGPRP, which “shrunken log2 fold change” value is on record?
A: The value was 0.238.

Q: How did the “shrunken log2 fold change” value turn out when RRIRQRPPRLPRPRPRPKPKPRP was run?
A: The value was 0.278.

Q: With RRIRYRPPRLPRPRPRPEPSPRP as the sequence, how does the “shrunken log2 fold change” value read?
A: The value was -0.0733.

Q: How did the “shrunken log2 fold change” value turn out when RRIRIRPPRLPRPRPRPEAWPRP was run?
A: The value was 0.033.

Q: RRIRGRPPRLPRPRPRPPHSPRP was tested. Which “shrunken log2 fold change” value did it give?
A: The value was 0.568.

Q: Which “shrunken log2 fold change” value does the source give for RRIRIRPPRLPRPRPRPASMPRP here?
A: The value was -0.281.

Q: For RRIRMRPPRLPRPRPRPKPYPRP, which “shrunken log2 fold change” value is on record?
A: The value was 0.314.

Q: Which “shrunken log2 fold change” value does the source give for RRIRCRPPRLPRPRPRPIDPPRP here?
A: The value was -0.18.

Q: RRIRFRPPRLPRPRPRPLFWPRP was tested. Which “shrunken log2 fold change” value did it give?
A: The value was 0.201.

Q: With RRIRQRPPRLPRPRPRPTLAPRP as the sequence, how does the “shrunken log2 fold change” value read?
A: The value was 0.783.

Q: With RRIRFRPPRLPRPRPRPAWAPRP as the sequence, how does the “shrunken log2 fold change” value read?
A: The value was 0.953.

Q: RRIRYRPPRLPRPRPRPSHEPRP was tested. Which “shrunken log2 fold change” value did it give?
A: Its value is -0.0704.

Q: How did the “shrunken log2 fold change” value turn out when RRIRDRPPRLPRPRPRPMTFPRP was run?
A: Its value is -0.0951.

Q: For RRIRCRPPRLPRPRPRPLNNPRP, which “shrunken log2 fold change” value is on record?
A: The value was -0.694.

Q: Which “shrunken log2 fold change” value does the source give for RRIRKRPPRLPRPRPRPYVRPRP here?
A: The value was 0.00408.

Q: How did the “shrunken log2 fold change” value turn out when RRIRVRPPRLPRPRPRPHSGPRP was run?
A: The value was -0.022.

Q: Which “shrunken log2 fold change” value does the source give for RRIRYRPPRLPRPRPRPSQPPRP here?
A: The value was -0.0421.

Q: How did the “shrunken log2 fold change” value turn out when RRIRVRPPRLPRPRPRPCKNPRP was run?
A: Its value is -0.0206.

Q: How did the “shrunken log2 fold change” value turn out when RRIRGRPPRLPRPRPRPRDSPRP was run?
A: The value was 0.257.

Q: How did the “shrunken log2 fold change” value turn out when RRIRWRPPRLPRPRPRPACRPRP was run?
A: Its value is 0.258.

Q: With RRIRPRPPRLPRPRPRPELKPRP as the sequence, how does the “shrunken log2 fold change” value read?
A: Its value is 0.0877.

Q: For RRIRDRPPRLPRPRPRPRWNPRP, which “shrunken log2 fold change” value is on record?
A: Its value is 0.0976.

Q: RRIRARPPRLPRPRPRPDIPPRP was tested. Which “shrunken log2 fold change” value did it give?
A: The value was -0.192.

Q: With RRIRVRPPRLPRPRPRPKTWPRP as the sequence, how does the “shrunken log2 fold change” value read?
A: Its value is 0.063.

Q: RRIRNRPPRLPRPRPRPITYPRP was tested. Which “shrunken log2 fold change” value did it give?
A: The value was -1.09.

Q: How did the “shrunken log2 fold change” value turn out when RRIRCRPPRLPRPRPRPQKEPRP was run?
A: Its value is -0.104.

Q: How did the “shrunken log2 fold change” value turn out when RRIRHRPPRLPRPRPRPKSLPRP was run?
A: Its value is -0.0347.

Q: For RRIRCRPPRLPRPRPRPKYQPRP, which “shrunken log2 fold change” value is on record?
A: Its value is -0.0383.

Q: For RRIRVRPPRLPRPRPRPTPYPRP, which “shrunken log2 fold change” value is on record?
A: Its value is -0.0655.

Q: With RRIRYRPPRLPRPRPRPGHHPRP as the sequence, how does the “shrunken log2 fold change” value read?
A: Its value is -0.132.

Q: RRIRWRPPRLPRPRPRPFDMPRP was tested. Which “shrunken log2 fold change” value did it give?
A: Its value is -0.105.

Q: Which “shrunken log2 fold change” value does the source give for RRIRARPPRLPRPRPRPLMQPRP here?
A: Its value is 0.223.

Q: RRIRARPPRLPRPRPRPNWFPRP was tested. Which “shrunken log2 fold change” value did it give?
A: Its value is 0.0236.

Q: Which “shrunken log2 fold change” value does the source give for RRIRNRPPRLPRPRPRPMDSPRP here?
A: Its value is -0.0507.

Q: RRIRHRPPRLPRPRPRPKMPPRP was tested. Which “shrunken log2 fold change” value did it give?
A: Its value is -0.0334.

Q: Which “shrunken log2 fold change” value does the source give for RRIRVRPPRLPRPRPRPNAYPRP here?
A: The value was -0.572.

Q: For RRIRCRPPRLPRPRPRPNVPPRP, which “shrunken log2 fold change” value is on record?
A: Its value is -0.154.

Q: RRIRARPPRLPRPRPRPVACPRP was tested. Which “shrunken log2 fold change” value did it give?
A: Its value is 0.284.

Q: How did the “shrunken log2 fold change” value turn out when RRIRQRPPRLPRPRPRPTQVPRP was run?
A: The value was -0.0311.

Q: RRIRFRPPRLPRPRPRPDIQPRP was tested. Which “shrunken log2 fold change” value did it give?
A: The value was -0.628.

Q: RRIRIRPPRLPRPRPRPWFAPRP was tested. Which “shrunken log2 fold change” value did it give?
A: The value was -0.31.

Q: How did the “shrunken log2 fold change” value turn out when RRIRQRPPRLPRPRPRPLIFPRP was run?
A: The value was -0.432.

Q: Which “shrunken log2 fold change” value does the source give for RRIRKRPPRLPRPRPRPGTAPRP here?
A: Its value is 0.625.

Q: RRIRRRPPRLPRPRPRPEDAPRP was tested. Which “shrunken log2 fold change” value did it give?
A: Its value is 0.582.

Q: How did the “shrunken log2 fold change” value turn out when RRIRFRPPRLPRPRPRPPQLPRP was run?
A: The value was 0.274.

Q: How did the “shrunken log2 fold change” value turn out when RRIRCRPPRLPRPRPRPTSEPRP was run?
A: Its value is 0.108.

Q: RRIRRRPPRLPRPRPRPMKGPRP was tested. Which “shrunken log2 fold change” value did it give?
A: The value was 0.144.

Q: How did the “shrunken log2 fold change” value turn out when RRIRPRPPRLPRPRPRPECKPRP was run?
A: The value was -0.352.

Q: For RRIRWRPPRLPRPRPRPPRYPRP, which “shrunken log2 fold change” value is on record?
A: The value was 0.374.

Q: RRIRTRPPRLPRPRPRPPSWPRP was tested. Which “shrunken log2 fold change” value did it give?
A: The value was 0.345.

Q: How did the “shrunken log2 fold change” value turn out when RRIRGRPPRLPRPRPRPYQNPRP was run?
A: The value was -0.0136.

Q: RRIRARPPRLPRPRPRPAWNPRP was tested. Which “shrunken log2 fold change” value did it give?
A: The value was -0.132.
